The results in this text go back to patent US20200283478A1 (Genentech, published 2020).

A word on the Kd: it is the free concentration of one partner at which half of the binding sites on the other are occupied at equilibrium, for simple one-to-one binding. One may read the IC50 as the concentration that inhibits the measured activity by half. A lower IC50 goes with greater potency.

Read-outs that look alike come from different tables or passages of the source. Bridge positions count the residues as written; N and C are the ends. Square brackets hold non-standard residues; d marks the D form. Ends that are not written are not given here. hArg = N=C(N)NCCCC[C@H](N)C(=O)O Where only a bound is given, the exact number is not on record here.

Assay [1] concerns the target T1, PCSK9Δhelix (human, UniProt Q8NBP7 31-152; Q8NBP7 168-692).
T1 construct: Made by TEV cleavage of human PCSK9 M1-Q692 with an engineered TEV site; The new N-terminus of the catalytic domain is S-A168; also called His-PCSK9Δhelix; PCSK9 lacking the P' helix
Kind of assay: SPR, Method 1 (Biacore T100, His-tagged target captured on NTA chip). (In general: In SPR one partner is held on a chip, and binding of the other changes the refractive index at the surface.)

In assay [2] the target is T2, PCSK9 (proprotein convertase subtilisin/kexin type 9), His-tagged, full-length (human, UniProt Q8NBP7 31-692).
T2 construct: Captured by the His tag (SPR Methods 1 and 2), amine-coupled (Method 3), or His-tagged in TR-FRET; also called His-PCSK9
Described as above.

For assay [3], the target named is T3, PCSK9Δhelix (human PCSK9 lacking the P' helix, His-tagged) (human, UniProt Q8NBP7 31-152; Q8NBP7 168-692).
T3 construct: Construct M1-Q692 with an engineered TEV site (Y166 and R167 deleted, ENLYFQS inserted between R165 and A168); also called His-PCSK9Δhelix; C-terminal (His)8-tagged PCSK9Δhelix
Kind of assay: TR-FRET competition; His-PCSK9Δhelix with Ab20 as competitor ligand. Background: Time-resolved FRET reads energy transfer from a long-lived donor to a nearby acceptor.

Assay [4] deals with T4, His-tagged, full-length human PCSK9 (proprotein convertase subtilisin/kexin type 9) (human, UniProt A8T644 31-152; Q8NBP7 153-692).
T4 construct: also called His-PCSK9; C-terminal (His)8-tagged PCSK9
Kind of assay: TR-FRET competition; His-PCSK9 with EGF(A)-Fc as competitor ligand.

The target in assay [5] is T4, His-tagged, full-length human PCSK9 …. Kind of assay: TR-FRET competition; His-PCSK9 with LDLR-Fc as competitor ligand.
In assay [6] the target is T5, PCSK9Δhelix (human, Chemically biotinylated in the phage ELISAs; the site is not given.).
T5 construct: construct M1-Q692 with engineered TEV site, cleaved by TEV; also called His-PCSK9Δhelix; open groove PCSK9Δhelix
Kind of assay: Ab20 TR-FRET competition and SPR.

Assay [7] addresses T5, PCSK9Δhelix. Kind of assay: phage competition ELISA: synthetic peptide against its phage-displayed counterpart.
Assay [8] deals with T6, proprotein convertase subtilisin/kexin type 9 (PCSK9) (human, UniProt Q8NBP7 31-692).
T6 construct: His-tagged full-length PCSK9 in TR-FRET and SPR, biotinylated in phage ELISA; secreted protein is autoprocessed (prodomain plus catalytic/CRD chain starting at S153); also called rec.PCSK9; His-PCSK9
Kind of assay: phage spot ELISA; second of two rows with this extension.

The target of assay [9] is T5, PCSK9Δhelix. The description is as above.
For assay [10], the target named is T6, proprotein convertase subtilisin/kexin …. Kind of assay: phage spot ELISA; first of two rows with this extension. (In general: ELISA stands for enzyme-linked immunosorbent assay.)
The target in assay [11] is T5, PCSK9Δhelix. Described as above.
For assay [12], the target named is T3, PCSK9Δhelix (human PCSK9 lacking the P' …). Kind of assay: TR-FRET competition; His-PCSK9Δhelix with Ab20 as competitor ligand. The source holds these as a separate data set.
The target is the same in assay [13]. Kind of assay: SPR (Biacore), His-tagged PCSK9Δhelix captured on NTA chip.
For assay [14], the target named is T2, PCSK9 (proprotein convertase …). Kind of assay: TR-FRET competition; competitor EGF(A)-Fc binding to His-PCSK9.
Assay [15] addresses T1, PCSK9Δhelix. Kind of assay: TR-FRET competition; competitor Ab20 binding to His-PCSK9Δhelix.
The target in assay [16] is T5, PCSK9Δhelix. Kind of assay: phage competition ELISA against phage-displayed K9gvpep4 (ΦK9gvpep4).
For assay [17], the target named is T5, PCSK9Δhelix. Kind of assay: phage competition ELISA against phage-displayed Pep2-8 (Φpep2-8).
Assay [18] addresses T1, PCSK9Δhelix. Kind of assay: SPR, Method 2 (Biacore T100, NTA capture, single cycle kinetics).
The target of assay [19] is T2, PCSK9 (proprotein convertase …). The assay is described as above.
The target is the same in assay [20]. Kind of assay: TR-FRET competition; competitor EGF(A)-Fc binding to His-PCSK9. This is another data set of the same source.
The target in assay [21] is T1, PCSK9Δhelix. Kind of assay: TR-FRET competition; competitor Ab20 binding to His-PCSK9Δhelix. This is another data set of the same source.
Assay [22] has as its target T6, proprotein convertase subtilisin/kexin …. Kind of assay: cell-based or functional assay.

T1 sequence (Q8NBP7 31-152, stated change not applied, chain 1 of 2): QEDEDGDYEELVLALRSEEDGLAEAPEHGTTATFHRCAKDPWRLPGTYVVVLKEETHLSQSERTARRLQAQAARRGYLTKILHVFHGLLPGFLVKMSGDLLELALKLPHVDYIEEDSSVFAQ
T1 sequence (Q8NBP7 other isoform, or with tags, fused parts or gaps mutant, chain 2 of 2): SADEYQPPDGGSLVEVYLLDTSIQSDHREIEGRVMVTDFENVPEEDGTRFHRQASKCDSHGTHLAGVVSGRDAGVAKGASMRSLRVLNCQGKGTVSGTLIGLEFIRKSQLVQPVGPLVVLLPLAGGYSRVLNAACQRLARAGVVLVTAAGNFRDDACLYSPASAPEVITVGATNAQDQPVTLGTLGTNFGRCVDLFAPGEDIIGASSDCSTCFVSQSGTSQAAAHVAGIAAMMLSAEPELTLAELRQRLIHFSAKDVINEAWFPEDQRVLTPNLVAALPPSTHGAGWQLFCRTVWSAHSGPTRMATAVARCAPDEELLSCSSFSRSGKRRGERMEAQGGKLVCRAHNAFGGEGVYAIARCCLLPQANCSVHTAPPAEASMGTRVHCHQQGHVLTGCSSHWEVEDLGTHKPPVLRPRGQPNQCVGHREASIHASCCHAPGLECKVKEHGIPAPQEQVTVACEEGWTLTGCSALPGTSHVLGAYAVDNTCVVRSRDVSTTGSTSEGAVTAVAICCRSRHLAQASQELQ
T5 sequence (prodomain, as listed by the source mutant limits assumed, chain 1 of 2): as the sequence (Q8NBP7 31-152, stated change not applied, chain 1 of 2) above
T5 sequence (chain, as listed by the source mutant limits assumed, chain 2 of 2): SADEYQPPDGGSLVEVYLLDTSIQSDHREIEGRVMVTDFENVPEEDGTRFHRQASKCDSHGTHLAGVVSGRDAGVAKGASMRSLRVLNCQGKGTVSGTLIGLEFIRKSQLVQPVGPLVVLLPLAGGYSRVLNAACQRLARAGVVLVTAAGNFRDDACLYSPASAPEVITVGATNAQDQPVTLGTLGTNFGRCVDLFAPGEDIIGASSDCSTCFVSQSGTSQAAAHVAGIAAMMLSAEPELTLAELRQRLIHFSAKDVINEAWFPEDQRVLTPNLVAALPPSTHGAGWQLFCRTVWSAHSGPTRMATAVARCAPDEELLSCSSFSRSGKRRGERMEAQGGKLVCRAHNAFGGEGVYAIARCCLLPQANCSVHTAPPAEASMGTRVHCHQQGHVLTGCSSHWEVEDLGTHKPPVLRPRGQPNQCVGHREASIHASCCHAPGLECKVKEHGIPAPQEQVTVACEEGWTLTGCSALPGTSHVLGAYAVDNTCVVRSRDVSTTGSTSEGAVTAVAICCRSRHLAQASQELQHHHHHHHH
T4 sequence (A8T644 31-152, chain 1 of 2): as the sequence (Q8NBP7 31-152, stated change not applied, chain 1 of 2) above
T4 sequence (A8T644 other isoform, or with tags, fused parts or gaps, chain 2 of 2): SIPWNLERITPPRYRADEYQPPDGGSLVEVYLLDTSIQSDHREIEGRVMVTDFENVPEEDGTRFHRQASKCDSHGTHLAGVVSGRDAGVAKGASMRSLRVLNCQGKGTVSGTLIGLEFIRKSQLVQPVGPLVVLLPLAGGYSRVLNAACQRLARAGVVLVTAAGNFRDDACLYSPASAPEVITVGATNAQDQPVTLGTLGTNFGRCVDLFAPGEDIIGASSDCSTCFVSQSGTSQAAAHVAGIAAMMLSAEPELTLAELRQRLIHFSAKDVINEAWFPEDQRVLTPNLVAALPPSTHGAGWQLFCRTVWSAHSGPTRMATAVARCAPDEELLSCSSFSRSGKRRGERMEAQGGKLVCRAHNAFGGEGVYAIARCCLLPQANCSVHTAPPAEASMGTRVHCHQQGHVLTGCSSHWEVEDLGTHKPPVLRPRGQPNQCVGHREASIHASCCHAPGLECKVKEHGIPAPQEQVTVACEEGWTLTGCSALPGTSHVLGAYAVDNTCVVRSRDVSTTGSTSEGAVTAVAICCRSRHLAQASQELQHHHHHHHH
T3 sequence (Q8NBP7 31-152, stated change not applied, chain 1 of 2): as the sequence (Q8NBP7 31-152, stated change not applied, chain 1 of 2) above
T3 sequence (Q8NBP7 other isoform, or with tags, fused parts or gaps mutant, chain 2 of 2): as the sequence (chain, as listed by the source mutant limits assumed, chain 2 of 2) above
T2 sequence (Q8NBP7 31-692 limits assumed): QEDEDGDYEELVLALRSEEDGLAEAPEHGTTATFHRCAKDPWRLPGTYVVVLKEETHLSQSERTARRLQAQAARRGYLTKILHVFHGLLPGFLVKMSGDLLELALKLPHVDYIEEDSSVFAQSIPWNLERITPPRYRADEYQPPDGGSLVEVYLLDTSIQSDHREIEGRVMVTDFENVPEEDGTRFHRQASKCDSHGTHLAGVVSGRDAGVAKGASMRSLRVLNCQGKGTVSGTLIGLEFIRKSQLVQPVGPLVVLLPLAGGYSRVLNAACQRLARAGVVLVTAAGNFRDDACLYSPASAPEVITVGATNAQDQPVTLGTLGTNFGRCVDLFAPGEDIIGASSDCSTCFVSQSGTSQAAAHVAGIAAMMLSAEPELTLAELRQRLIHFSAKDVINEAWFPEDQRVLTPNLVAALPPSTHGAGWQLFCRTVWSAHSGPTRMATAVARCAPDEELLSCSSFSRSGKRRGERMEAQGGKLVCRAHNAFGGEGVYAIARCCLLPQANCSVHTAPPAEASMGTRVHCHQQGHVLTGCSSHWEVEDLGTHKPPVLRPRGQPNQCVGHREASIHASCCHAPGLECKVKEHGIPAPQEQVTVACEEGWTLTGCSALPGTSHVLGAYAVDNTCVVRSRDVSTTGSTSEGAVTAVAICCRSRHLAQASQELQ
T6 sequence (Q8NBP7 other isoform, or with tags, fused parts or gaps limits assumed): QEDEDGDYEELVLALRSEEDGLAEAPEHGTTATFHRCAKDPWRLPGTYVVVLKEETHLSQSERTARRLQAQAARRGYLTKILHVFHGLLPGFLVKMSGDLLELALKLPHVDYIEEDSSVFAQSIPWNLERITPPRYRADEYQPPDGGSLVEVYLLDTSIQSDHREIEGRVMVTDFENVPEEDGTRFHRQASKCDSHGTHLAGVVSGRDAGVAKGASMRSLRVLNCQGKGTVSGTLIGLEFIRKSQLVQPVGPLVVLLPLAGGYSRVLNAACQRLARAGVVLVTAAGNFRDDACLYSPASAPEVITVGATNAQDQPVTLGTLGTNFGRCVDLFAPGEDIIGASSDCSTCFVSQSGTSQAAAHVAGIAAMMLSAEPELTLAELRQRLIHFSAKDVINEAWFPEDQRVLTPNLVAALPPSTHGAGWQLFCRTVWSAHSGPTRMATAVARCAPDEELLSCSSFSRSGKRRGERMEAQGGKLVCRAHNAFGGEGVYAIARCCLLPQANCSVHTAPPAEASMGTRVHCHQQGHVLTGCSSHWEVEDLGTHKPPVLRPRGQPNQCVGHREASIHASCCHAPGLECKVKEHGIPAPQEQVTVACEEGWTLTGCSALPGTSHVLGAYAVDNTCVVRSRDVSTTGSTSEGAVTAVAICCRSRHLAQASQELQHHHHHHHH

In the case of H-SGCFIPWNLQRIGLLC-NH2 (disulfide 3-16 (inferred), Two Cys, disulfide-cyclized) [Compound 26], the dissociation constant Kd in the assay with PCSK9Δhelix [1] is 802 nM; in [2], 29 µM.

B1: Compound 228: Ac-SFAFPGWNLV(homoR)IGLLR-NH2 (peptide)
peptide: Ac-SFAFPGWNLV[hArg]IGLLR-NH2
SMILES: CC[C@H](C)[C@H](NC(=O)[C@H](CCCCNC(=N)N)NC(=O)[C@@H](NC(=O)[C@H](CC(C)C)NC(=O)[C@H](CC(N)=O)NC(=O)[C@H](Cc1c[nH]c2ccccc12)NC(=O)CNC(=O)[C@@H]1CCCN1C(=O)[C@H](Cc1ccccc1)NC(=O)[C@H](C)NC(=O)[C@H](Cc1ccccc1)NC(=O)[C@H](CO)NC(C)=O)C(C)C)C(=O)NCC(=O)N[C@@H](CC(C)C)C(=O)N[C@@H](CC(C)C)C(=O)N[C@@H](CCCNC(=N)N)C(N)=O
Regarding B1, the figures for the IC50 in assay [3], in assay [4] and in assay [5] were 1370 nM, 13.2 µM and 30.4 µM, respectively.

As to Ac-WNLVRIGLLR-NH2 [Compound 53], the “fold reduction of binding affinity on elimination of Pro4” value in the assay with PCSK9Δhelix [6] worked out at 10 fold.

B2: K9gvpep4 (peptide)
peptide: SGCRLPWNLQRIGLPC
modifications: not fully specified (bridges); cysteine pairing not given here
notes: synthetic; Compound 19 = Pep2-8_K9gvpep4, the two N-terminal residues of K9gvpep4 being the SG of the GSG linker
With B2, the IC50 with PCSK9Δhelix [7] turned out to be 544 nM.

As to TAFTSWEEYLDWVGSGVLWNHSRI [SEQ ID NO 308], the ELISA in [8] amounted to 3; with PCSK9Δhelix [9] it was 2.91; in [10], 2.74; in the assay with PCSK9Δhelix [11], 2.82. Moreover, the s/n ratio in assay [8] worked out at 29.7; with PCSK9Δhelix [9], 31.3; in assay [10], 24.9; in the assay with PCSK9Δhelix [11] it was 26.4.

B3: K9gvpep7 (peptide)
peptide: SGDLMPWNLVRIGLLR
notes: synthetic; Compound 20 = Pep2-8_K9gvpep7
Take B3: the IC50 in the assay with PCSK9Δhelix [7] was 914 nM.

Take Ac-WNLV[hArg]IGLLR-NH2 [Compound 192: Ac-WNLV(homoR)IGLLR-NH2]: the IC50 in [12] was 5.6 µM; in assay [3], 5550 nM; in assay [4], > 50 µM; in assay [5], > 50 µM. In addition, in assay [13], binding was put at a Kd of 1000 nM.

As for Ac-TVFTSWEEYLDWVGSGDLMPWNLVRIGLLR-NH2 (also called Pep2-8p7; Pep2-8_K9gvpep7) [Compound 20, listing 1 of 2 here], the IC50 in assay [14] worked out at 37 nM; with PCSK9Δhelix [15] it was 1 nM. Besides, the equilibrium dissociation constant (Kd) with PCSK9Δhelix [1] stood at 0.366 nM; in assay [2] it was 0.00556 µM.

As for Ac-TVFTSWEEYLDWVGSGDLMPWNLVRIGLLR-NH2 (also called Pep2-8p7; Pep2-8_K9gvpep7) [Compound 20, listing 2 of 2 here], the IC50 with PCSK9Δhelix [16] was found to be 5.99 nM; with PCSK9Δhelix [17] it was 1.75 nM.

B4: Compound 23 (peptide)
peptide: Ac-SPCRVGYTPC-NH2
modifications: disulfide 3-10
SMILES: CC(=O)N[C@@H](CO)C(=O)N1CCC[C@H]1C(=O)N[C@H]1CSSC[C@@H](C(N)=O)NC(=O)[C@@H]2CCCN2C(=O)[C@H]([C@@H](C)O)NC(=O)[C@H](Cc2ccc(O)cc2)NC(=O)CNC(=O)[C@H](C(C)C)NC(=O)[C@H](CCCNC(=N)N)NC1=O
notes: Two Cys
For the molecule B4, the Kd was found to be 754 nM with PCSK9Δhelix [18] and 5740 nM in assay [19].

In the case of SGDLMPWNLVRIGLLR (Free N- and C-termini as printed) [Compound 28], the Kd stood at 856 nM in the assay with PCSK9Δhelix [1] and 46.1 µM in [2].

B5: Compound 2 (peptide)
peptide: Ac-TVFTSWEEYLDWVGSGCWNLKRIGSQGC-NH2
modifications: disulfide 17-28
SMILES: CC[C@H](C)[C@@H]1NC(=O)[C@H](CCCNC(=N)N)NC(=O)[C@H](CCCCN)NC(=O)[C@H](CC(C)C)NC(=O)[C@H](CC(N)=O)NC(=O)[C@H](Cc2c[nH]c3ccccc23)NC(=O)[C@@H](NC(=O)CNC(=O)[C@H](CO)NC(=O)CNC(=O)[C@@H](NC(=O)[C@H](Cc2c[nH]c3ccccc23)NC(=O)[C@H](CC(=O)O)NC(=O)[C@H](CC(C)C)NC(=O)[C@H](Cc2ccc(O)cc2)NC(=O)[C@H](CCC(=O)O)NC(=O)[C@H](CCC(=O)O)NC(=O)[C@H](Cc2c[nH]c3ccccc23)NC(=O)[C@H](CO)NC(=O)[C@@H](NC(=O)[C@H](Cc2ccccc2)NC(=O)[C@@H](NC(=O)[C@@H](NC(C)=O)[C@@H](C)O)C(C)C)[C@@H](C)O)C(C)C)CSSC[C@@H](C(N)=O)NC(=O)CNC(=O)[C@H](CCC(N)=O)NC(=O)[C@H](CO)NC(=O)CNC1=O
notes: Disulfide C17-C28
Consider B5, for which the results for the IC50 (in assay [20]; with PCSK9Δhelix [21]) were 110 nM and 4 nM, respectively. In addition, the Kd worked out at 1.87 nM in the assay with PCSK9Δhelix [18] and 30.3 nM in assay [19].

B6: Compound 229: Ac-MESFPGWNLV(homoR)IGLLR-NH2 (peptide)
peptide: Ac-MESFPGWNLV[hArg]IGLLR-NH2
SMILES: CC[C@H](C)[C@H](NC(=O)[C@H](CCCCNC(=N)N)NC(=O)[C@@H](NC(=O)[C@H](CC(C)C)NC(=O)[C@H](CC(N)=O)NC(=O)[C@H](Cc1c[nH]c2ccccc12)NC(=O)CNC(=O)[C@@H]1CCCN1C(=O)[C@H](Cc1ccccc1)NC(=O)[C@H](CO)NC(=O)[C@H](CCC(=O)O)NC(=O)[C@H](CCSC)NC(C)=O)C(C)C)C(=O)NCC(=O)N[C@@H](CC(C)C)C(=O)N[C@@H](CC(C)C)C(=O)N[C@@H](CCCNC(=N)N)C(N)=O
Take B6: the results for the half-inhibitory concentration (IC50) in assay [3], in [4] and in [5] were 840 nM, 8.3 µM and 25 µM, respectively.

B7: Compound 19 (peptide)
peptide: Ac-TVFTSWEEYLDWVGSGCRLPWNLQRIGLPC-NH2
modifications: disulfide 17-30 (inferred)
notes: Two Cys, disulfide-cyclized; also called Pep2-8p4; Pep2-8_K9gvpep4
Consider B7, for which the concentration for half-maximal inhibition (IC50) in assay [20] is 9 nM; with PCSK9Δhelix [21] it was 2 nM. Further, the values for the Kd (in the assay with PCSK9Δhelix [1]; in [2]) were 0.0989 nM and 0.00207 µM, respectively.

Regarding Ac-TVFTSWEEYLDWVGSGCRLPWNLQRIGLPC-NH2 (disulfide 17-30 (inferred), also called Pep2-8p4; Pep2-8_K9gvpep4), the “concentration restoring LDLR levels on HepG2 cells to 50% (EC50)” value in assay [22] was ~0.5 µM. The values for the IC50 with PCSK9Δhelix [16] and with PCSK9Δhelix [17] were 5.65 nM and 2.92 nM, respectively.
